B1: Ceroid-lipofuscinosis neuronal protein 6 (Homo sapiens), Q9NWW5 (parent)
chain: MEATRRRQHLGATGGPGAQLGASFLQARHGSVSADEAARTAPFHLDLWFYFTLQNWVLDFGRPIAMLVFPLEWFPLNKPSVGDYFHMAYNVITPFLLLKLIERSPRTLPRSITYVSIIIFIMGASIHLVGDSVNHRLLFSGYQHHLSVRENPIIKNLKPETLIDSFELLYYYDEYLGHCMWYIPFFLILFMYFSGCFTASKAESLIPGPALLLVAPSGLYYWYLVTEGQIFILFIFTFFAMLALVLHQKRKRLFLDSNGLFLFSSFALTLLLVALWVAWLWNDPVLRKKYPGVIYVPEPWAFYTLHVSSRH
partner: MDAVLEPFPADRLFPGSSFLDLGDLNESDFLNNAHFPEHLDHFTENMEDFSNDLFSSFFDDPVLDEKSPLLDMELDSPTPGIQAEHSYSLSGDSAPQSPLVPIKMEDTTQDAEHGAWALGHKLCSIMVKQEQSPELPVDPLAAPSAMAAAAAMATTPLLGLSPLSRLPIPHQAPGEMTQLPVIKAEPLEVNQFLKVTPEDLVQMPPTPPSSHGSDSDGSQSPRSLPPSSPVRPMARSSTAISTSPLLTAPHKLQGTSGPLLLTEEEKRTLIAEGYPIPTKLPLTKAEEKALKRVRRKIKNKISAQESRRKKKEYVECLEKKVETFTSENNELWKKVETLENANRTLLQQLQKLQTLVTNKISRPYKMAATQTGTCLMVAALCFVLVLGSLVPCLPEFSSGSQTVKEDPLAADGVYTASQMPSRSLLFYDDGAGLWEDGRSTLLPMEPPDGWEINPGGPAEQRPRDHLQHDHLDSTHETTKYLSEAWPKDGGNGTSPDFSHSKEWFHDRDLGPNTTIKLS
B2: Catenin alpha-3 (Homo sapiens), Q9UI47-2 (parent)
chain: MSAETPITLNIDPQDLQVQTFTVEKLLEPLIIQVTTLVNCPQNPSSRKKGRSKRASVLLASVEEATWNLLDKGEKIAQEATVLKDELTASLEEVRKESEALKVSAERFTDDPCFLPKREAVVQAARALLAAVTRLLILADMIDVMCLLQHVSAFQRTFESLKNVANKSDLQKTYQKLGKELENLDYLAFKRQQDLKSPNQRDEIAGARASLKENSPLLHSICSACLEHSDVASLKASKDTVCEEIQNALNVISNASQGIQNMTTPPEPQAATLGSALDELENLIVLNPLTVTEEEIRPSLEKRLEAIISGAALLADSSCTRDLHRERIIAECNAIRQALQDLLSEYMNNAGKKERSNTLNIALDNMCKKTRDLRRQLRKAIIDHVSDSFLDTTVPLLVLIEAAKNGREKEIKEYAAIFHEHTSRLVEVANLACSMSTNEDGIKIVKIAANHLETLCPQIINAALALAARPKSQAVKNTMEMYKRTWENHIHVLTEAVDDITSIDDFLAVSGMFLFF
partner: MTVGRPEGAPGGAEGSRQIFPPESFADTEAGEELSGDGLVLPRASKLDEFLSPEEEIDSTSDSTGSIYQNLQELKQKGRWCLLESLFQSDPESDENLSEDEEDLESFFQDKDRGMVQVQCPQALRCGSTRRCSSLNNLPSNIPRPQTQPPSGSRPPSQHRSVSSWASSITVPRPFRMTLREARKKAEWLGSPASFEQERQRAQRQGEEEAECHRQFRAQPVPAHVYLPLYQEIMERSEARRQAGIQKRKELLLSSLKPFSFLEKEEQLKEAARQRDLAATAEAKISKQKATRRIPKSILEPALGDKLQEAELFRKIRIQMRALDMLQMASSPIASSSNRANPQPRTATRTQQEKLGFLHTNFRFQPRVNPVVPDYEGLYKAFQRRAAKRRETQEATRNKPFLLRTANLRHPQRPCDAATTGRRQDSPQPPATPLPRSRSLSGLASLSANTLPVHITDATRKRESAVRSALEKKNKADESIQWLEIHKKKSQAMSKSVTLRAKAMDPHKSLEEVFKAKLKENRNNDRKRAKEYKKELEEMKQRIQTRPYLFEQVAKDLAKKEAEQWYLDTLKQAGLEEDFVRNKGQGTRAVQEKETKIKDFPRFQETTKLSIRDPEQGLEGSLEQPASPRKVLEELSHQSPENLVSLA
B3: Very-long-chain enoyl-CoA reductase (Homo sapiens), Q9NZ01 (parent)
chain: MKHYEVEILDAKTREKLCFLDKVEPHATIAEIKNLFTKTHPQWYPARQSLRLDPKGKSLKDEDVLQKLPVGTTATLYFRDLGAQISWVTVFLTEYAGPLFIYLLFYFRVPFIYGHKYDFTSSRHTVVHLACICHSFHYIKRLLETLFVHRFSHGTMPLRNIFKNCTYYWGFAAWMAYYINHPLYTPPTYGAQQVKLALAIFVICQLGNFSIHMALRDLRPAGSKTRKIPYPTKNPFTWLFLLVSCPNYTYEVGSWIGFAIMTQCLPVALFSLVGFTQMTIWAKGKHRSYLKEFRDYPPLRMPIIPFLL
partner: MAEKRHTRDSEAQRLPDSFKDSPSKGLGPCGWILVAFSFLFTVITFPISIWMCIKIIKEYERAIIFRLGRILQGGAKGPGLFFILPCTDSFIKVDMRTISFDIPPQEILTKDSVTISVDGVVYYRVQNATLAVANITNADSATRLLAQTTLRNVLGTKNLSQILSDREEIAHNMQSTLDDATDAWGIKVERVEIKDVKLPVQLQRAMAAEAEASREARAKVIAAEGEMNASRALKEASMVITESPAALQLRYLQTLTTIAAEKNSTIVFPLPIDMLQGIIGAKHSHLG
B4: Catenin alpha-3 (Homo sapiens), Q9UI47-2 (parent)
chain: B2 chain
partner: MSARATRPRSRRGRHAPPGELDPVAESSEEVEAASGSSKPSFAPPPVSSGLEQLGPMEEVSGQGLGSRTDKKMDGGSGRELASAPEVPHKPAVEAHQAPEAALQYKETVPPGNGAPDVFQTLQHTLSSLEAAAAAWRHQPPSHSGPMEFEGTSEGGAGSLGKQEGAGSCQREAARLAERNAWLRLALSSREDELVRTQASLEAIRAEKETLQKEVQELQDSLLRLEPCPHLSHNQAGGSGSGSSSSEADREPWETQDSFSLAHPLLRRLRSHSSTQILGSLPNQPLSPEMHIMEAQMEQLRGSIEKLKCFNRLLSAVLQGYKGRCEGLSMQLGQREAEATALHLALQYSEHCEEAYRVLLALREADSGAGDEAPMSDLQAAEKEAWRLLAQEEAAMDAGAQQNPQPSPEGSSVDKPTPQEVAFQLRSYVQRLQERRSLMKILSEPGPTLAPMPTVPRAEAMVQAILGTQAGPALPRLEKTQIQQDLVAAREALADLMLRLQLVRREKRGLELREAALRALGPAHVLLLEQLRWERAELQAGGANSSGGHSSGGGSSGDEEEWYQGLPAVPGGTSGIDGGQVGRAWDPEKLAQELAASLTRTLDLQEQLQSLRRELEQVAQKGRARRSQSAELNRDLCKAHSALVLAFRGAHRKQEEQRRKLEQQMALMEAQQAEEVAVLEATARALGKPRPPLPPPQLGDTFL
B5: Catenin alpha-3 (Homo sapiens), Q9UI47-2 (parent)
chain: B2 chain
partner: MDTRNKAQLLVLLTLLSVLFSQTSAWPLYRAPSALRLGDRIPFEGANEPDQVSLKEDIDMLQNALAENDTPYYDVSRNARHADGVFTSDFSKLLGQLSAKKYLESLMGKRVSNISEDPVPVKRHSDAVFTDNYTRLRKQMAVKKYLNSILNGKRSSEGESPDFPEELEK
B6: Golgi SNAP receptor complex member 2 (Homo sapiens), O14653 (parent)
chain: MDPLFQQTHKQVHEIQSCMGRLETADKQSVHIVENEIQASIDQIFSRLERLEILSSKEPPNKRQNARLRVDQLKYDVQHLQTALRNFQHRRHAREQQERQREELLSRTFTTNDSDTTIPMDESLQFNSSLQKVHNGMDDLILDGHNILDGLRTQRLTLKGTQKKILDIANMLGLSNTVMRLIEKRAFQDKYFMIGGMLLTCVVMFLVVQYLT
partner: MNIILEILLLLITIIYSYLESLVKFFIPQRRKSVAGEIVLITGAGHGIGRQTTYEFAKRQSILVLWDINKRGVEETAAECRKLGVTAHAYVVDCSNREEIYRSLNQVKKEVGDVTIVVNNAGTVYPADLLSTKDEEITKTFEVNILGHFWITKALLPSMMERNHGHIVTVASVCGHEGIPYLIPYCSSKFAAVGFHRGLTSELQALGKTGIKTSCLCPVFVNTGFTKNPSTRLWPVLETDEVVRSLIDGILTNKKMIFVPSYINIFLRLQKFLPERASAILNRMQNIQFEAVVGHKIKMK
B7: Transmembrane protein 43 (Homo sapiens), Q9BTV4 (parent)
chain: MAANYSSTSTRREHVKVKTSSQPGFLERLSETSGGMFVGLMAFLLSFYLIFTNEGRALKTATSLAEGLSLVVSPDSIHSVAPENEGRLVHIIGALRTSKLLSDPNYGVHLPAVKLRRHVEMYQWVETEESREYTEDGQVKKETRYSYNTEWRSEIINSKNFDREIGHKNPSAMAVESFMATAPFVQIGRFFLSSGLIDKVDNFKSLSLSKLEDPHVDIIRRGDFFYHSENPKYPEVGDLRVSFSYAGLSGDDPDLGPAHVVTVIARQRGDQLVPFSTKSGDTLLLLHHGDFSAEEVFHRELRSNSMKTWGLRAAGWMAMFMGLNLMTRILYTLVDWFPVFRDLVNIGLKAFAFCVATSLTLLTVAAGWLFYRPLWALLIAGLALVPILVARTRVPAKKLE

Variants of: B1
Settings: with cr3l1_human CREB3L1, Q96BA8

Variant | effect of a mutation on the interaction
G123D | with no effect
R6T | with no effect
L47F | with no effect

Variants of: B2
Settings: with FAM161B

Variant | effect of a mutation on the interaction
V94D | with no effect

Variants of: B3
Settings: with stom_human STOM

Variant | effect of a mutation on the interaction
P182L | disrupting interaction strength

Variants of: B4
Settings: with usbp1_human USHBP1, Q8N6Y0

Variant | effect of a mutation on the interaction
V94D | disrupting interaction strength

Variants of: B5
Settings: with VIP

Variant | effect of a mutation on the interaction
V94D | disrupting interaction strength

Variants of: B6
Settings: with dhb13_human HSD17B13, Q7Z5P4

Variant | effect of a mutation on the interaction
G144W | with no effect

Variants of: B7
Settings: with ubp25_human USP25, Q9UHP3
Sequence of ubp25_human USP25, Q9UHP3 (Q9UHP3 whole entry): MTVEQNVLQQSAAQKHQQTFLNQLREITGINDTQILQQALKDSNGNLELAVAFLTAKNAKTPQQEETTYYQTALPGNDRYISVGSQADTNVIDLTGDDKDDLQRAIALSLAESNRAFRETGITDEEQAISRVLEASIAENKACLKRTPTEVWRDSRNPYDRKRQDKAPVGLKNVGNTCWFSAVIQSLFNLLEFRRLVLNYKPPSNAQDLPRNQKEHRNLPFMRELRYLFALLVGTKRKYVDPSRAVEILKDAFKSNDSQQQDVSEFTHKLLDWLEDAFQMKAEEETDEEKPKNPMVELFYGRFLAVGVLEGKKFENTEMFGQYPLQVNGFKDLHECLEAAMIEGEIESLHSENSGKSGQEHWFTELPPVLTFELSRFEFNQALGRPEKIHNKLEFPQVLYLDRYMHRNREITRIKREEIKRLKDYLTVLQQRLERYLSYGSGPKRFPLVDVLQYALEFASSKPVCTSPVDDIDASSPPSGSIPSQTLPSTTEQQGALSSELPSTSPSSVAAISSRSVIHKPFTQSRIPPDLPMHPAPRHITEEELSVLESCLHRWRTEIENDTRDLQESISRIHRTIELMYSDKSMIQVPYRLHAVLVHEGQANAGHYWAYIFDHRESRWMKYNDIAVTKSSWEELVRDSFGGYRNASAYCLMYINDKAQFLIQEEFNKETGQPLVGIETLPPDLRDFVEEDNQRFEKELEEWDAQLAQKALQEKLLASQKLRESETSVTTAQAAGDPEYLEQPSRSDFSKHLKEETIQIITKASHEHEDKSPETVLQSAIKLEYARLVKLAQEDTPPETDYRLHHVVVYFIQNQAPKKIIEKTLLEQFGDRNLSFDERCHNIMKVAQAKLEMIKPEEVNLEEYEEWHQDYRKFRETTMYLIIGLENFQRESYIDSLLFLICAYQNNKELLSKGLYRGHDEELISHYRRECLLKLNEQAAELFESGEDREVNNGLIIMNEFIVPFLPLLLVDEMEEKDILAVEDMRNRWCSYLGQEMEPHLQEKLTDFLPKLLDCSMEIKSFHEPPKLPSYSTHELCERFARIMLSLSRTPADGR

Variant | effect of a mutation on the interaction
E142K | with no effect
R28W | with no effect
I91V | with no effect

Variants of: B7
Settings: with ar13b_human ARL13B

Variant | effect of a mutation on the interaction
E142K | disrupting interaction strength
R28W | disrupting interaction strength
I91V | with no effect

Variants of: B7
Settings: with FGA

Variant | effect of a mutation on the interaction
E142K | with no effect
R28W | with no effect
I91V | with no effect

Variants of: B7
Settings: with PCYT1B

Variant | effect of a mutation on the interaction
E142K | with no effect
R28W | with no effect
I91V | with no effect

Variants of: B7
Settings: with zch12_human ZCCHC12, Q6PEW1
Sequence of zch12_human ZCCHC12, Q6PEW1 (Q6PEW1 whole entry): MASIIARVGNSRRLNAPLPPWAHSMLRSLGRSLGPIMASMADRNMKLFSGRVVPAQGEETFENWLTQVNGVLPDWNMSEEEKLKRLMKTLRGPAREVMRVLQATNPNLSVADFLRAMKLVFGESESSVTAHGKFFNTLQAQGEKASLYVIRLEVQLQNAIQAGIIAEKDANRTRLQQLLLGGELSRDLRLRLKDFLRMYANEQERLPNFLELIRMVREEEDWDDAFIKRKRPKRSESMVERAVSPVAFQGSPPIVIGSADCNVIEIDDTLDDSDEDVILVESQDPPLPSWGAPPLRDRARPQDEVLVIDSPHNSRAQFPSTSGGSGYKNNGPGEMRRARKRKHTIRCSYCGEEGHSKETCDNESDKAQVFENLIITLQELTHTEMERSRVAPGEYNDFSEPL

Variant | effect of a mutation on the interaction
E142K | with no effect
R28W | with no effect
I91V | with no effect

Reference: IntAct's records for PubMed 32296183
